Consider three molecules from publication PMC4131482, “The significance of the F variant of alpha-1-antitrypsin and unique case report of a PiFF homozygote” (BMC Pulmonary Medicine, 2014).

Test [1] has as its target proteinase 3 (UniProt P24158). Put plainly: time course of enzyme inhibition (residual activity, second order association rate constant); methylamine-treated serum A1AT and PR3, equimolar, 1 nM each, 23°C, plate wells of 150 uL; residual PR3 activity at 1-5 min with the FRET substrate Abz-VAD-norV-ADRQ-EDDnp.
For test [2], the target named is proteinase 3 (UniProt P24158). Put plainly: time course of enzyme inhibition (residual activity, second order association rate constant); purified M or Z variant A1AT and PR3, equimolar, 1 nM each, 23°C, plate wells of 150 uL; residual PR3 activity at 1-5 min with the FRET substrate Abz-VAD-norV-ADRQ-EDDnp.
Test [3] deals with T1, M variant alpha-1-antitrypsin (human (endogenous in serum), UniProt P01009 25-418).
T1 construct: alpha-1-antitrypsin (A1AT), normal M variant, human serum or bought pure protein; the assays tell them apart; also called M variant A1AT; pure M variant A1AT; source: endogenous, serum of healthy PiMM controls, treated with methylamine; also bought: Athens Research and Technology, pure
The description is as above. To be noted: both partners purified.

Test [4] deals with T1, M variant alpha-1-antitrypsin. Put plainly: time course of enzyme inhibition (residual activity, second order association rate constant); methylamine-treated serum A1AT and PR3, equimolar, 1 nM each, 23°C, plate wells of 150 uL; residual PR3 activity at 1-5 min with the FRET substrate Abz-VAD-norV-ADRQ-EDDnp. To be noted: one partner purified.
Test [5] concerns the target T2, F variant alpha-1-antitrypsin (human (endogenous in serum), UniProt P01009 25-418, arginine at residue 223 by cysteine).
T2 construct: alpha-1-antitrypsin (A1AT), F variant, human serum; arginine at residue 223 replaced by cysteine; also called F variant A1AT; F A1AT; source: endogenous, serum of a PiFF homozygote, treated with methylamine
The description is as above. To be noted: one partner purified.

T1 sequence (P01009 25-418, change not shown): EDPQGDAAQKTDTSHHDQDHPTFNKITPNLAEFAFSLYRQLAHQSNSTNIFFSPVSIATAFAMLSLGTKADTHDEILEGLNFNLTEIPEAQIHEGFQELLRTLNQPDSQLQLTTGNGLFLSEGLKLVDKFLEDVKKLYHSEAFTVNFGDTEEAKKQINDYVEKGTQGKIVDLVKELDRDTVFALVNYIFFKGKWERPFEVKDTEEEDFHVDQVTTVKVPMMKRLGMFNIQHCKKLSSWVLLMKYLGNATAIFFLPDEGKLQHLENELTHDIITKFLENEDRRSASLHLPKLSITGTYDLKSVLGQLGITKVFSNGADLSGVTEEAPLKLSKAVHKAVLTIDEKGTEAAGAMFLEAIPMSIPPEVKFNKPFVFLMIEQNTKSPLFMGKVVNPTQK
T2 sequence (P01009 other isoform, or with tags, fused parts or gaps with the stated changes): as the sequence (P01009 25-418, change not shown) above, with R223C counted along it

Molecule “S variant alpha-1-antitrypsin (from UniProt P01009 25-418) (natural protein)” gave a kon with proteinase 3 [1] of 951000 M⁻¹ s⁻¹.
Regarding “Z variant alpha-1-antitrypsin (from UniProt P01009 25-418) (natural protein)”, the kon with proteinase 3 [2] amounted to 1.03e+06 M⁻¹ s⁻¹; in the test with proteinase 3 [1] it was 1.1e+06 M⁻¹ s⁻¹.

B1: proteinase 3 (enzyme, UniProt P24158 28-248, looked up)
chain: IVGGHEAQPHSRPYMASLQMRGNPGSHFCGGTLIHPSFVLTAAHCLRDIPQRLVNVVLGAHNVRTQEPTQQHFSVAQVFLNNYDAENKLNDVLLIQLSSPANLSASVATVQLPQQDQPVPHGTQCLAMGWGRVGAHDPPAQVLQELNVTVVTFFCRPHNICTFVPRRKAGICFGDSGGPLICDGIIQGIDSFVIWGCATRLFPDFFTRVALYVDWIRSTLR
notes: proteinase 3 (PR3), bought pure enzyme, active site titrated; also called PR3; pure PR3; source: bought: Merck, pure
Consider B1, for which the kon in test [3] is 983000 M⁻¹ s⁻¹; in test [4], 924000 M⁻¹ s⁻¹; in test [5], 1.06e+06 M⁻¹ s⁻¹.
